The assay has as its target T1, Protein A (on chromatography support) (UniProt P38507 37-327).
T1 construct: Commercial recombinant Protein A resins; also called rProtein A FF; NAb Protein A Plus
The experiment in a line: rProtein A FF column, pH gradient, 20 mM sodium citrate, 1 M NaCl. Here is the method: The solvent system consisted of solvent A (PBS, 1×), solvent B (20 mM sodium citrate and 1 M NaCl, pH 5.5) and solvent C (20 mM sodium citrate and 1M NaCl, pH 2.5). The elution started with an isocratic elution with 100% A in the first 20 min followed by a quick switch to 100% B at 20 min. […] A linear gradient from 33.5% C to 100% C was followed for 30 min. The flow rate was kept 250 microliters/min and the chromatograms were detected at 280 nm by a UV detector.

B1: differentially modified heterodimeric human IgG2 Fc/ΔAdpFc (other)
chain 1: ERKCCVECPPCPAPPVAGPSVFLFPPKPKDTLMISRTPEVTCVVVDVSHEDPEVQFNWYVDGVEVHNAKTKPREEQFNSTFRVVSVLTVVHQDWLNGKEYKCKVSNKGLPAPIEKTISKTKGQPREPQVYTLPPSREEMTKNQVSLTCLVKGFYPSDIAVEWESNGQPENNYKTTPPMLDSDGSFFLYSKLTVDKSRWQQGNVFSCSVMHEALHNHYTQKSLSLSPGK
chain 2: ERKCCVECPPCPAPPVAGPSVFLFPPKPKDTLMISRTPEVTCVVVDVSHEDPEVQFNWYVDGVEVHNAKTKPREEQFNSTFRVVSVLTVVHQDWLNGKEYKCKVSNKGLPAPIEKTISKTKGQPREPQVYTLPPSREEMTKNQVSLTCLVKGFYPSDIAVEWESNGQPENNYKTTPPMLDSDGSFFLYSKLTVDKSRWQQGNVFSCSVMHEALHNRFTQKSLSLSPGK
With B1, the “elution pH from Protein A column” value stood at 4.5 pH.

B2: unmodified human homodimeric IgG2 Fc/Fc (other, UniProt P01859-1 99-326, looked up)
chain: ERKCCVECPPCPAPPVAGPSVFLFPPKPKDTLMISRTPEVTCVVVDVSHEDPEVQFNWYVDGVEVHNAKTKPREEQFNSTFRVVSVLTVVHQDWLNGKEYKCKVSNKGLPAPIEKTISKTKGQPREPQVYTLPPSREEMTKNQVSLTCLVKGFYPSDISVEWESNGQPENNYKTTPPMLDSDGSFFLYSKLTVDKSRWQQGNVFSCSVMHEALHNHYTQKSLSLSPGK
notes: domain: Fc; also called hIgG2 Fc/Fc; hIgG2
In the case of B2, the “elution pH from Protein A column” value worked out at 3.5 pH.

Values taken from patent US20190031713A1 (Regeneron, published 2019).
